According to patent publication US20020102617:

Experiments:
[1] = tested on: Elk1
[2] = tested on: Kemptide (a peptide substrate for PKA)
[3] = tested on: protein phosphatase inhibitor 2 (I-2)

| Substance | phosphorylation (33P-γ-ATP, autoradiography emulsion on slide) [1] | phosphorylation (33P-γ-ATP, autoradiography emulsion on slide) [2] | phosphorylation (33P-γ-ATP, autoradiography emulsion on slide) [3] |
| --- | --- | --- | --- |
| catalytic subunit of cAMP-dependent protein kinase (PKA) | only the substrate for PKA (Kemptide) was phosphorylated (Elk1 not phosphorylated) | only the substrate for PKA (Kemptide) was phosphorylated | only the substrate for PKA (Kemptide) was phosphorylated (I-2 not phosphorylated) |
| p42 MAP kinase (Erk2) | only the specific substrates of these kinases (I-2 and Elk1, respectively) were phosphorylated | only the specific substrates of these kinases (I-2 and Elk1, respectively) were phosphorylated (Kemptide not phosphorylated by Erk2) | only the specific substrates of these kinases (I-2 and Elk1, respectively) were phosphorylated (I-2 not phosphorylated by Erk2) |
| casein kinase II (CKII) | only the specific substrates of these kinases (I-2 and Elk1, respectively) were phosphorylated (Elk1 not phosphorylated by CKII) | only the specific substrates of these kinases (I-2 and Elk1, respectively) were phosphorylated (Kemptide not phosphorylated by CKII) | only the specific substrates of these kinases (I-2 and Elk1, respectively) were phosphorylated |
